What all share (test): cell-based or functional assay
One experiment deals with hGLP-1R (Homo sapiens, UniProt P43220).
The target in experiment [1] is T1, human GIP receptor (human) (UniProt P48546).
T1 sequence (looked up): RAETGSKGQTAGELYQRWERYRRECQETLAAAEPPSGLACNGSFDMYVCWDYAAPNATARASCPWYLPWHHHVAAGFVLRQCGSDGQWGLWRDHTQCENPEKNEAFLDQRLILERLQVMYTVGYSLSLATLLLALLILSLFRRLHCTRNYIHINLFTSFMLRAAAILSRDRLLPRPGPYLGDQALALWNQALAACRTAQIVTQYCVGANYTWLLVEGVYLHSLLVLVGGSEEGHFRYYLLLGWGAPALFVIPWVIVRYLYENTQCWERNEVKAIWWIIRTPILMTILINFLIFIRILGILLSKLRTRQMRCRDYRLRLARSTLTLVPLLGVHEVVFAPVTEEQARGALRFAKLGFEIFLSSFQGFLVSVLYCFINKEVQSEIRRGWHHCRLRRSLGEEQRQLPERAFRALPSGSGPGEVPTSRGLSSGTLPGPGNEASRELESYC

Experiment [2] addresses human glucagon receptor (human) (UniProt P47871).

Where a chain is given by its changes, count along the chain named.

Our source for the Relative cAMP EC50, cAMP Rel EC50 (in the presence of 1% HSA) and cAMP Rel EC50, nM (1% HSA) values is patent US20240270821A1, “GIP/GLP1/GCG TRI-RECEPTOR AGONISTS AND USES THEREOF” (priority 2023, published 2024).

Sequence of hGLP-1R (P43220 24-463): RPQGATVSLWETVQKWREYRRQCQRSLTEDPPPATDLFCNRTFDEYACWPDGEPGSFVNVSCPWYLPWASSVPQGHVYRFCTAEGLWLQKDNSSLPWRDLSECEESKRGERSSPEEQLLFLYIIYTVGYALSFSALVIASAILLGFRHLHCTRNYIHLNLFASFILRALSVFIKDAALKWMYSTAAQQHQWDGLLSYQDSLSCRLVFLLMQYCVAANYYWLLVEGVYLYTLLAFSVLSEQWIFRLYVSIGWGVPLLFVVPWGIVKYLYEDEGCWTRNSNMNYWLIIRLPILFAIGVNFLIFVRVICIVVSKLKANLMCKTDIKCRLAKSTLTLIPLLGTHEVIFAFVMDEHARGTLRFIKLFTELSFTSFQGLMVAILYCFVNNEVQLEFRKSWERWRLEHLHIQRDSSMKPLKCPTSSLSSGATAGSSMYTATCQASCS
Sequence of human glucagon receptor (human) (P47871 26-477): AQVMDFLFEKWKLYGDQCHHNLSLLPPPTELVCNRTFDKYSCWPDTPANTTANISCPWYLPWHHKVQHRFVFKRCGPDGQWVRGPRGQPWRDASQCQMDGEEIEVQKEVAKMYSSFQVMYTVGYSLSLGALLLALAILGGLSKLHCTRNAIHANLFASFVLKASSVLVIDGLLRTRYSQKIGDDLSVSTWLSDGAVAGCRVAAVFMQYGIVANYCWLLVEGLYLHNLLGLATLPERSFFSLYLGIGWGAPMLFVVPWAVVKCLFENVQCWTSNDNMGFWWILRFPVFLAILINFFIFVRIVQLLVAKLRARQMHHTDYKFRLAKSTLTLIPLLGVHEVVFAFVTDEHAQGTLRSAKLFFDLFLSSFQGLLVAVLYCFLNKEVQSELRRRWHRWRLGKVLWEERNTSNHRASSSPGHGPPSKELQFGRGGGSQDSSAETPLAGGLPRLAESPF

B1: Example 229 (peptide)
chain: YXQGTFTSDFSXXLDKKAQXAFIEYLIEXGESSGAPPPSGS
modifications: non-natural residues; lipidated Lys AEEA-γGlu-C18 diacid; C-term amide; synthetic construct; SITE 2: note = 2-Aminoisobutyric Acid; SITE 12: note = L-ornithine; SITE 13: note = alpha-methyl-leucine; SITE 17: note = Lysine is chemically modified through conjugation of the epsilon-amino group of the Lysine side chain with (2-[2-(2-Amino-ethoxy)-ethoxy]-acetyl)-(gamma-Glu)
Consider B1, for which the Relative cAMP EC50 was found to be 1.58 nM with hGLP-1R, 0.179 nM in experiment [1] and 2.3 nM in experiment [2].

B2: Example 263 (peptide)
chain: B1 chain with Y25W, I27L, X29A, E31S, S41T
modifications: synthetic construct; SITE 2: note = 2-Aminoisobutyric Acid; SITE 12: note = L-ornithine; SITE 13: note = alpha-methyl-leucine; SITE 17: note = Lysine is chemically modified through conjugation of the epsilon-amino group of the Lysine side chain with (2-[2-(2-Amino-ethoxy)-ethoxy]-acetyl)-(gamma-Glu)
As to B2, the Relative cAMP EC50 came out at 1.32 nM in the experiment with hGLP-1R, 0.169 nM in experiment [1] and 7.53 nM in experiment [2]. The cAMP Rel EC50 (in the presence of 1% HSA) was found to be 257 nM with hGLP-1R, 25.7 nM in experiment [1] and 893 nM in experiment [2].

B3: Example 261 (peptide)
chain: B1 chain with I27L, X29G, E31P, S39G, S41X
modifications: synthetic construct; SITE 2: note = 2-Aminoisobutyric Acid; SITE 12: note = L-ornithine; SITE 13: note = alpha-methyl-leucine; SITE 17: note = Lysine is chemically modified through conjugation of the epsilon-amino group of the Lysine side chain with (2-[2-(2-Amino-ethoxy)-ethoxy]-acetyl)-(gamma-Glu)
Turning to B3, the Relative cAMP EC50 was 3.12 nM with hGLP-1R, 0.29 nM in experiment [1] and 5.49 nM in experiment [2]. Further, the cAMP Rel EC50 (in the presence of 1% HSA) with hGLP-1R was 383 nM; in experiment [1], 38.4 nM; in experiment [2], 520 nM.

B4: Example 243 (peptide)
chain: B1 chain with I27L, E31H
modifications: Aib, Orn, αMeL; lipidated Lys; C-terminal amide; synthetic construct; SITE 2: note = 2-Aminoisobutyric Acid; SITE 12: note = L-ornithine; SITE 13: note = alpha-methyl-leucine; SITE 17: note = Lysine is chemically modified through conjugation of the epsilon-amino group of the Lysine side chain with (2-[2-(2-Amino-ethoxy)-ethoxy]-acetyl)-(gamma-Glu)
Consider B4, for which the Relative cAMP EC50 with hGLP-1R is 6.46 nM; in experiment [1], 0.178 nM; in experiment [2], 6.86 nM.

B5: Example 257 (peptide)
chain: B1 chain with I27L, X29A, E31P, A35X, S41H
modifications: synthetic construct; SITE 2: note = 2-Aminoisobutyric Acid; SITE 12: note = L-ornithine; SITE 13: note = alpha-methyl-leucine; SITE 17: note = Lysine is chemically modified through conjugation of the epsilon-amino group of the Lysine side chain with (2-[2-(2-Amino-ethoxy)-ethoxy]-acetyl)2-(gamma-Glu)
In the case of B5, the Relative cAMP EC50 with hGLP-1R was determined as 2.66 nM; in experiment [1] it was 0.135 nM; in experiment [2] it was 7.36 nM. Moreover, the results for the cAMP Rel EC50 (in the presence of 1% HSA) (in the experiment with hGLP-1R; in experiment [1]; in experiment [2]) were 388 nM, 21 nM and 1210 nM, respectively.

B6: Example 258 (peptide)
chain: B1 chain with I27L, X29A, E31P, A35X, S41X
modifications: synthetic construct; SITE 2: note = 2-Aminoisobutyric Acid; SITE 12: note = L-ornithine; SITE 13: note = alpha-methyl-leucine; SITE 17: note = Lysine is chemically modified through conjugation of the epsilon-amino group of the Lysine side chain with (2-[2-(2-Amino-ethoxy)-ethoxy]-acetyl)2-(gamma-Glu)
Turning to B6, the Relative cAMP EC50 with hGLP-1R came to 2.71 nM; in experiment [1] it was 0.154 nM; in experiment [2] it was 7.15 nM. The cAMP Rel EC50 (in the presence of 1% HSA) with hGLP-1R was found to be 492 nM; in experiment [1] it was 23.3 nM; in experiment [2], 1280 nM.

B7: Example 260 (peptide)
chain: B1 chain with I27L, X29G, E31P, S41T
modifications: synthetic construct; SITE 2: note = 2-Aminoisobutyric Acid; SITE 12: note = L-ornithine; SITE 13: note = alpha-methyl-leucine; SITE 17: note = Lysine is chemically modified through conjugation of the epsilon-amino group of the Lysine side chain with (gamma-Glu)2-CO-(CH2)16-CO2H; SITE 20: note = 2-Am
On to B7, for which the Relative cAMP EC50 with hGLP-1R is 3.85 nM; in experiment [1], 0.251 nM; in experiment [2], 5.04 nM. The results for the cAMP Rel EC50 (in the presence of 1% HSA) (with hGLP-1R; in experiment [1]; in experiment [2]) were 160 nM, 12.4 nM and 162 nM, respectively.

B8: Example 271 (peptide)
chain: YXQGTFTSDFSXXLDKKAQXAFIEWLLEGGHSSGAPPPGGE
modifications: synthetic construct; SITE 2: note = 2-Aminoisobutyric Acid; SITE 12: note = L-ornithine; SITE 13: note = alpha-methyl-leucine; SITE 17: note = Lysine is chemically modified through conjugation of the epsilon-amino group of the Lysine side chain with (2-[2-(2-Amino-ethoxy)-ethoxy]-acetyl)2-(gamma-Glu)
B8: the Relative cAMP EC50 worked out at 5 nM with hGLP-1R, 0.152 nM in experiment [1] and 8.51 nM in experiment [2]. In addition, the figures for the cAMP Rel EC50 (in the presence of 1% HSA) (with hGLP-1R; in experiment [1]; in experiment [2]) were 887 nM, 15.7 nM and 2680 nM, respectively.

B9: Example 240 (peptide)
chain: B1 chain with I27L
modifications: non-natural residues; lipidated Lys; C-terminal amide; synthetic construct; SITE 2: note = 2-Aminoisobutyric Acid; SITE 12: note = L-ornithine; SITE 13: note = alpha-methyl-leucine; SITE 17: note = Lysine is chemically modified through conjugation of the epsilon-amino group of the Lysine side chain with (2-[2-(2-Amino-ethoxy)-ethoxy]-acetyl)-(gamma-Glu)
Consider B9, for which the Relative cAMP EC50 with hGLP-1R is 3.62 nM; in experiment [1] it was 0.214 nM; in experiment [2] it was 2.02 nM. In addition, the cAMP Rel EC50, nM (1% HSA) with hGLP-1R came to 396 nM; in experiment [1], 10.4 nM; in experiment [2], 521 nM.

B10: Example 270 (peptide)
chain: B8 chain with H31S, G39S, E41H
modifications: synthetic construct; SITE 2: note = 2-Aminoisobutyric Acid; SITE 12: note = L-ornithine; SITE 13: note = alpha-methyl-leucine; SITE 17: note = Lysine is chemically modified through conjugation of the epsilon-amino group of the Lysine side chain with (2-[2-(2-Amino-ethoxy)-ethoxy]-acetyl)-(gamma-Glu)
On to B10, for which the Relative cAMP EC50 amounted to 3.2 nM in the experiment with hGLP-1R, 0.26 nM in experiment [1] and 5 nM in experiment [2]. Besides, the cAMP Rel EC50 (in the presence of 1% HSA) with hGLP-1R stood at 658 nM; in experiment [1], 36.5 nM; in experiment [2], 1060 nM.

B11: Example 245 (peptide)
chain: B1 chain with I27L, E31H
modifications: Aib, Orn, αMeL; lipidated Lys; C-terminal amide; synthetic construct; SITE 2: note = 2-Aminoisobutyric Acid; SITE 12: note = L-ornithine; SITE 13: note = alpha-methyl-leucine; SITE 17: note = Lysine is chemically modified through conjugation of the epsilon-amino group of the Lysine side chain with (gamma-Glu)-(2-[2-(2-Amino-ethoxy)-ethoxy]-acetyl)
For B11, the Relative cAMP EC50 with hGLP-1R was determined as 5.99 nM; in experiment [1] it was 0.0684 nM; in experiment [2] it was 7.07 nM. The cAMP Rel EC50, nM (1% HSA) is 540 nM in the experiment with hGLP-1R, 10.5 nM in experiment [1] and 1120 nM in experiment [2].

B12: Example 269 (peptide)
chain: B8 chain with G39S, E41H
modifications: synthetic construct; SITE 2: note = 2-Aminoisobutyric Acid; SITE 12: note = L-ornithine; SITE 13: note = alpha-methyl-leucine; SITE 17: note = Lysine is chemically modified through conjugation of the epsilon-amino group of the Lysine side chain with (2-[2-(2-Amino-ethoxy)-ethoxy]-acetyl)-(gamma-Glu)
For the molecule B12, the Relative cAMP EC50 in the experiment with hGLP-1R is 3.23 nM; in experiment [1] it was 0.288 nM; in experiment [2], 7.69 nM. Also, the figures for the cAMP Rel EC50 (in the presence of 1% HSA) (with hGLP-1R; in experiment [1]; in experiment [2]) were 428 nM, 21.9 nM and 1100 nM, respectively.
